Results on 37 molecules are retold here after patent US20230365662A1.

Positions count from the first letter of the chain named. Names and notes keep the numbering of the source. Values joined by “and” are separate entries in the source; they are usually repeats but may differ in a detail not shown here. Equal entries are not always repeated.

B1: KB001 mouse Fab FASEBA VH S61Q (Fab, V domains shown)
VH: EVQLKQSGPGLVAPSQSLSITCTVSGFSLSIYSVHWVRQPPGKGLEWLGMIWGGGSSDYNQALKSRLSISKDNSKSQVFLKMNSLQTDDTAMYYCARNGNFYAMDYWGQGTSVTVSS
VL: QIVLTQSPAIMSASLGERVTMTCTASSSVSSSFLHWYQQKPGSSPQLWIYSTSNLASGVPARFSGSGSGTSYSLTISSMEAEDAATYYCHQYHHSPYIYTFGGGTKLEIK
B2: KB001 mouse Fab FASEBA VH Y59V (Fab, V domains shown)
VH: B1 VH with Y59V, Q61S
VL: B1 VL
B3: KB001 mouse Fab FASEBA VH S57V (Fab, V domains shown)
VH: B1 VH with S57V, Q61S
VL: B1 VL
B4: KB001 mouse Fab FASEBA VH I31M (Fab, V domains shown)
VH: B1 VH with I31M, Q61S
VL: B1 VL
B5: KB001 mouse Fab FASEBA VH I31V (Fab, V domains shown)
VH: B1 VH with I31V, Q61S
VL: B1 VL
B6: KB001 mouse Fab FASEBA VH G99Y (Fab, V domains shown)
VH: B1 VH with Q61S, G99Y
VL: B1 VL
B7: KB001 mouse Fab FASEBA VH Y106L (Fab, V domains shown)
VH: B1 VH with Q61S, Y106L
VL: B1 VL
B8: KB001 mouse Fab FASEBA VH N100E (Fab, V domains shown)
VH: B1 VH with Q61S, N100E
VL: B1 VL
B9: KB001 mouse Fab FASEBA VH S30Y (Fab, V domains shown)
VH: B1 VH with S30Y, Q61S
VL: B1 VL
B10: KB001 mouse Fab FASEBA VH Y106F (Fab, V domains shown)
VH: B1 VH with Q61S, Y106F
VL: B1 VL
B11: KB001 mouse Fab FASEBA VH S57A (Fab, V domains shown)
VH: B1 VH with S57A, Q61S
VL: B1 VL
B12: KB001 mouse Fab FASEBA VH Y106T (Fab, V domains shown)
VH: B1 VH with Q61S, Y106T
VL: B1 VL
B13: KB001 mouse Fab FASEBA VH Y106V (Fab, V domains shown)
VH: B1 VH with Q61S, Y106V
VL: B1 VL
B14: KB001 mouse Fab FASEBA VH S30A (Fab, V domains shown)
VH: B1 VH with S30A, Q61S
VL: B1 VL
B15: KB001 mouse Fab FASEBA VH S61T (Fab, V domains shown)
VH: B1 VH with Q61T
VL: B1 VL
B16: KB001 mouse Fab FASEBA VH S61N (Fab, V domains shown)
VH: B1 VH with Q61N
VL: B1 VL
B17: KB001 mouse Fab FASEBA VH S65D (Fab, V domains shown)
VH: B1 VH with Q61S, S65D
VL: B1 VL
B18: KB001 mouse Fab FASEBA VH S57Q (Fab, V domains shown)
VH: B1 VH with S57Q, Q61S
VL: B1 VL
B19: KB001 mouse Fab FASEBA VH S65V (Fab, V domains shown)
VH: B1 VH with Q61S, S65V
VL: B1 VL
B20: KB001 mouse Fab FASEBA VH S56A (Fab, V domains shown)
VH: B1 VH with S56A, Q61S
VL: B1 VL
B21: KB001 mouse Fab FASEBA VH Y106Q (Fab, V domains shown)
VH: B1 VH with Q61S, Y106Q
VL: B1 VL
B22: KB001 mouse Fab FASEBA VH S28E (Fab, V domains shown)
VH: B1 VH with S28E, Q61S
VL: B1 VL
B23: KB001 mouse Fab FASEBA VH Y106M (Fab, V domains shown)
VH: B1 VH with Q61S, Y106M
VL: B1 VL
B24: KB001 mouse Fab FASEBA VH A103S (Fab, V domains shown)
VH: B1 VH with Q61S, A103S
VL: B1 VL
B25: KB001 mouse Fab FASEBA VH G99S (Fab, V domains shown)
VH: B1 VH with Q61S, G99S
VL: B1 VL
B26: KB001 mouse Fab FASEBA VH Y106R (Fab, V domains shown)
VH: B1 VH with Q61S, Y106R
VL: B1 VL
B27: KB001 mouse Fab FASEBA VH S65T (Fab, V domains shown)
VH: B1 VH with Q61S, S65T
VL: B1 VL
B28: KB001 mouse Fab FASEBA VH V34I (Fab, V domains shown)
VH: B1 VH with V34I, Q61S
VL: B1 VL
B29: KB001 mouse Fab FASEBA VH Y106K (Fab, V domains shown)
VH: B1 VH with Q61S, Y106K
VL: B1 VL
B30: KB001 mouse Fab FASEBA VH S30G (Fab, V domains shown)
VH: B1 VH with S30G, Q61S
VL: B1 VL
B31: KB001 mouse Fab FASEBA VH Y106A (Fab, V domains shown)
VH: B1 VH with Q61S, Y106A
VL: B1 VL
B32: KB001 mouse Fab FASEBA VH K64R (Fab, V domains shown)
VH: B1 VH with Q61S, K64R
VL: B1 VL
B33: KB001 mouse Fab FASEBA VH K64A (Fab, V domains shown)
VH: B1 VH with Q61S, K64A
VL: B1 VL
B34: KB001 mouse Fab FASEBA VH S28P (Fab, V domains shown)
VH: B1 VH with S28P, Q61S
VL: B1 VL
B35: KB001 mouse Fab FASEBA VH Y106I (Fab, V domains shown)
VH: B1 VH with Q61S, Y106I
VL: B1 VL
B36: KB001 mouse Fab FASEBA VH I31T (Fab, V domains shown)
VH: B1 VH with I31T, Q61S
VL: B1 VL
B37: KB001 mouse Fab FASEBA VH S61D (Fab, V domains shown)
VH: B1 VH with Q61D
VL: B1 VL

The target in the assay is HRgpA-6H (Porphyromonas gingivalis) (UniProt P28784). The assay can be described thus: ELISA on coated HRgpA-6H. For orientation: ELISA stands for enzyme-linked immunosorbent assay.
Regarding B1, the OD450nm was 0.634 and the Ratio OD(Variant)/OD(WT) was 1.28. Take B2: the OD450nm was 0.83 and 0.79; the Ratio OD(Variant)/OD(WT) was 1.05 and 0.999.

For B3, the OD450nm is 0.911 and 0.869; the Ratio OD(Variant)/OD(WT) was 1.04 and 0.988.

As for B4, the OD450nm was determined as 0.522 and the Ratio OD(Variant)/OD(WT) was 1.03. Regarding B5, the OD450nm was 0.537 and 0.521; the Ratio OD(Variant)/OD(WT) is 1.06 and 1.03. As to B6, the OD450nm came out at 0.835 and the Ratio OD(Variant)/OD(WT) came out at 1.05. Taken in the same sequence, the figures for B7 were 0.791 and 1.03. With B8, the OD450nm amounted to 0.886 and the Ratio OD(Variant)/OD(WT) amounted to 1.05. As for B9, the OD450nm was 0.53 and 0.488; the Ratio OD(Variant)/OD(WT) is 1.05 and 0.967.

Turning to B10, the OD450nm was 0.815 and 0.856; the Ratio OD(Variant)/OD(WT) is 1.06 and 1.11.

Turning to B11, the OD450nm is 0.922 and the Ratio OD(Variant)/OD(WT) is 1.05.

For the molecule B12, the OD450nm was found to be 0.827 and the Ratio OD(Variant)/OD(WT) was 1.07.

Regarding B13, the OD450nm was 0.795 and 0.84 and 0.802; the Ratio OD(Variant)/OD(WT) was 1.03 and 1.09 and 1.04.

For the molecule B14, the OD450nm was 0.534 and 0.499 and 0.494; the Ratio OD(Variant)/OD(WT) was 1.06 and 0.989 and 0.979. With B15, the OD450nm was 0.543 and 0.447; the Ratio OD(Variant)/OD(WT) is 1.1 and 0.906. Regarding B16, the OD450nm was found to be 0.537 and the Ratio OD(Variant)/OD(WT) came out at 1.09. For B17, the OD450nm was 0.866 and 0.897; the Ratio OD(Variant)/OD(WT) is 1.05 and 1.08.

On to B18, for which the OD450nm is 0.915 and 0.863 and 0.836; the Ratio OD(Variant)/OD(WT) is 1.04 and 0.981 and 0.951.

On to B19, for which the OD450nm came to 0.867 and the Ratio OD(Variant)/OD(WT) stood at 1.05. For the molecule B20, the OD450nm was 0.891 and 0.86 and 0.82; the Ratio OD(Variant)/OD(WT) is 1.01 and 0.978 and 0.932.

On to B21, for which the OD450nm was determined as 0.792 and the Ratio OD(Variant)/OD(WT) was found to be 1.03.

As for B22, the OD450nm is 0.561 and 0.551 and 0.494; the Ratio OD(Variant)/OD(WT) was 1.04 and 1.02 and 0.915.

B23: the OD450nm was 0.794 and 0.84; the Ratio OD(Variant)/OD(WT) was 1.03 and 1.09. Consider B24, for which the OD450nm turned out to be 0.909 and the Ratio OD(Variant)/OD(WT) stood at 1.05. Regarding B25, the OD450nm was found to be 0.809 and the Ratio OD(Variant)/OD(WT) is 1.01. In the case of B26, the OD450nm was 0.793 and the Ratio OD(Variant)/OD(WT) was 1.03. In the case of B27, the OD450nm stood at 0.883 and the Ratio OD(Variant)/OD(WT) turned out to be 1.07. For the molecule B28, the OD450nm is 0.891 and 0.868 and 0.866; the Ratio OD(Variant)/OD(WT) was 1.08 and 1.05 (2×). In the case of B29, the OD450nm was 0.807 and the Ratio OD(Variant)/OD(WT) amounted to 1.05.

With B30, the OD450nm is 0.533 and 0.515; the Ratio OD(Variant)/OD(WT) was 1.06 and 1.02. Regarding B31, the OD450nm is 0.821 and 0.835; the Ratio OD(Variant)/OD(WT) is 1.07 and 1.09. Turning to B32, the OD450nm was 0.87 and the Ratio OD(Variant)/OD(WT) was found to be 1.05.

As for B33, the OD450nm came to 0.89 and the Ratio OD(Variant)/OD(WT) was 1.08. On to B34, for which the OD450nm was 0.545 and 0.452 and 0.514; the Ratio OD(Variant)/OD(WT) is 1.01 and 0.837 and 0.952. For B35, the OD450nm was determined as 0.803 and the Ratio OD(Variant)/OD(WT) is 1.04. As to B36, the OD450nm was 0.56 and 0.534; the Ratio OD(Variant)/OD(WT) is 1.11 and 1.06. Consider B37, for which the Ratio OD(Variant)/OD(WT) is 1.14 and 1.11 (2×) and 0.956.
